Assay results from US20240383964A1, “De Novo Designed alpha(5) beta(1) Integrin selective minibinders” (UNIVERSITY OF WASHINGTON, priority 2023, published 2024).

How the values were obtained:
integrin avb6 = integrin avb6 (Homo sapiens, UniProt P06756+P18564); test: BLI cross specificity, integrin avb6; assay type: binding; settings: 500 nM integrin (FIG. 2B legend: 500 nM or 1000 nM), integrin assay buffer
integrin avb8 = integrin avb8 (Homo sapiens, UniProt P06756+P26012); test: BLI cross specificity, integrin avb8; assay type: binding; settings: 500 nM integrin (FIG. 2B legend: 500 nM or 1000 nM), integrin assay buffer
integrin avb3 = integrin avb3 (Homo sapiens, UniProt P05106+P06756); test: BLI cross specificity, integrin avb3; assay type: binding; settings: 500 nM integrin (FIG. 2B legend: 500 nM or 1000 nM), integrin assay buffer
[1] = molecular target: T1, α5β1 on K562 cells wild type (Homo sapiens, UniProt P05556+P08648); test: Cell surface titration of minibinder on wild type cells; assay type: cell-based; settings: α5β1 the only RGD binding integrin expressed
T1 construct: endogenous in cells; host or cells: K562 wild type (printed 'A562')
Experimental: (§1) FIG. 2. (A) BLI binding affinity traces for minibinder or ^8RGD^10/GGG mutant against α5β1 in indicated buffers. Minibinder affinity to integrin α5β1 is dependent on metal ion presence and RGD motif. All affinity data was collected by Octet™ R8 and binding affinity was estimated by the Octet™ ForteBio software package. (B) Minibinder has no detectable affinity in presence of 500 nM or 1000 nM integrin αvβ1, αvβ3, αvβ6, αvβ8 and α8β1. (C) Cell surface titration of minibinder 4584_V5.3 and 00179_v4.1 against K562 cells wild type. […] Integrin α5 subunit and β1 subunit were stained with integrin α5 and active integrin β1 subunit specific antibody, respectively. (E) Quantification of (D). Quantification was counted as a percentage of mb-sheets that colocalized with staining of a5 and b1, a5 only, b1 only, or none; 30-35 sheets were counted in each biological repeat. […] Vascular stability was analyzed at 12-h timepoints. […] (G) Quantification of (F). The number of nodes, meshes, and tubes from images in (F) were quantified using an angiogenesis analyzer plug-in in ImageJ. Statistical significance of each were analyzed using One-way Anova Bonferroni's multiple comparison test. […] The wound area of T0 and T12 time points were quantified using imageJ and level of cell migration were calculated using this equation (AreaT0-T12)/AreaT0, all samples were normalized to PBS as fold change. […]

[2] = molecular target: T2, active form of integrin α5β1 (Homo sapiens, UniProt P05556+P08648); test: Colocalization of minibinder conjugated to GFP-tagged protein sheets with integrin staining; assay type: cell-based; settings: α5 and active β1 specific antibodies
T2 construct: endogenous in cells
Experimental: as §1

HUVECs = test: Tube formation assay; assay type: cell-based, human
Experimental: as §1

T1 sequence (P08648 42-894 limits assumed): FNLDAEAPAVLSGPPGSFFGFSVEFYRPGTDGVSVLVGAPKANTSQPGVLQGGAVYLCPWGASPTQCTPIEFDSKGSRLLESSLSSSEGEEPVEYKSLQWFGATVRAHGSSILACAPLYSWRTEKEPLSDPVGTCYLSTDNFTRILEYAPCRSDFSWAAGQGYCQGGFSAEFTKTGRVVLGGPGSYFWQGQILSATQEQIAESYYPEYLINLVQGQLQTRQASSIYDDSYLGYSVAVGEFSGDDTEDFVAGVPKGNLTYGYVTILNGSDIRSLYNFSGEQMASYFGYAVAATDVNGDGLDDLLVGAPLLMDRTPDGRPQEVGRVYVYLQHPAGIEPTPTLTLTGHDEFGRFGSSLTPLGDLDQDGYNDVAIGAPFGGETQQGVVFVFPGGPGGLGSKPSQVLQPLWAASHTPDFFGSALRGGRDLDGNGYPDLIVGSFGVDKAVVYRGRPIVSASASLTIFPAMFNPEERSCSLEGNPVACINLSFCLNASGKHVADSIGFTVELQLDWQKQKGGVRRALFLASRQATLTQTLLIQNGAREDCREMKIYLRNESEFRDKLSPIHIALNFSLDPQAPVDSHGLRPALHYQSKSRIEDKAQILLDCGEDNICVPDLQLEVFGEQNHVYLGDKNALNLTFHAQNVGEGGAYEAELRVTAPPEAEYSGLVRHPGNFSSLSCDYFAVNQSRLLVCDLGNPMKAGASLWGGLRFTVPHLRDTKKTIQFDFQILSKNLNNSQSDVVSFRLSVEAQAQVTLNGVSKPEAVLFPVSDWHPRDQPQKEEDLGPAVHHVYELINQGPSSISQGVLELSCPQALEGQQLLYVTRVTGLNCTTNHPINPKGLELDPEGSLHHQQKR
T1 sequence (P08648 895-1049 partner limits assumed): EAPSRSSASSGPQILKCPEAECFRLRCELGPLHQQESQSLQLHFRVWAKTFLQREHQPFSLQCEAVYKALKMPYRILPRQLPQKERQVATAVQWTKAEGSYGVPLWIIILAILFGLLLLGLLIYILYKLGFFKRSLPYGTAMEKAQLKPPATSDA
T1 sequence (P05556 21-798): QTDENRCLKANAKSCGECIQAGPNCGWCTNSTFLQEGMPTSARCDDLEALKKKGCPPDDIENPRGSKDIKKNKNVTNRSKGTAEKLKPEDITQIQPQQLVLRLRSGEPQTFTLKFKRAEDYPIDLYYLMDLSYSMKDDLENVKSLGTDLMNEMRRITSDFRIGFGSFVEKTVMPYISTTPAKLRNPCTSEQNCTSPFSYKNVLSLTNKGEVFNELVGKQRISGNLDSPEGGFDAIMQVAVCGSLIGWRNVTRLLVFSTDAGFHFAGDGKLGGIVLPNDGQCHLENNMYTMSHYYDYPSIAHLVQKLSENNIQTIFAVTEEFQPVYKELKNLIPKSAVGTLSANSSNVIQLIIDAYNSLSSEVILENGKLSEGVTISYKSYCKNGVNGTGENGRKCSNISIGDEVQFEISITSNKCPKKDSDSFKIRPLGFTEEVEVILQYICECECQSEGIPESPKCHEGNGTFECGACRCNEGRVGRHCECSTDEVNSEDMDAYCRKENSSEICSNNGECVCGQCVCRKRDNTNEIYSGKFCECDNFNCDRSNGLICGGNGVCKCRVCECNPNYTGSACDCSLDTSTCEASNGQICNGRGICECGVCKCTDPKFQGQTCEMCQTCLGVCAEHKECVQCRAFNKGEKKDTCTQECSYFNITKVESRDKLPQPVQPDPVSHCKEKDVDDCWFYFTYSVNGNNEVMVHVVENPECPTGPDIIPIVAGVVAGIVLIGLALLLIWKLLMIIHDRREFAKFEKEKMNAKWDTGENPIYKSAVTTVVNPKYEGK
T2 sequence (P08648 42-894 limits assumed): as the sequence (P08648 42-894 limits assumed) above
T2 sequence (P08648 895-1049 partner limits assumed): as the sequence (P08648 895-1049 partner limits assumed) above
T2 sequence (P05556 21-798): as the sequence (P05556 21-798) above
integrin avb6, sequence (P06756 31-889 limits assumed): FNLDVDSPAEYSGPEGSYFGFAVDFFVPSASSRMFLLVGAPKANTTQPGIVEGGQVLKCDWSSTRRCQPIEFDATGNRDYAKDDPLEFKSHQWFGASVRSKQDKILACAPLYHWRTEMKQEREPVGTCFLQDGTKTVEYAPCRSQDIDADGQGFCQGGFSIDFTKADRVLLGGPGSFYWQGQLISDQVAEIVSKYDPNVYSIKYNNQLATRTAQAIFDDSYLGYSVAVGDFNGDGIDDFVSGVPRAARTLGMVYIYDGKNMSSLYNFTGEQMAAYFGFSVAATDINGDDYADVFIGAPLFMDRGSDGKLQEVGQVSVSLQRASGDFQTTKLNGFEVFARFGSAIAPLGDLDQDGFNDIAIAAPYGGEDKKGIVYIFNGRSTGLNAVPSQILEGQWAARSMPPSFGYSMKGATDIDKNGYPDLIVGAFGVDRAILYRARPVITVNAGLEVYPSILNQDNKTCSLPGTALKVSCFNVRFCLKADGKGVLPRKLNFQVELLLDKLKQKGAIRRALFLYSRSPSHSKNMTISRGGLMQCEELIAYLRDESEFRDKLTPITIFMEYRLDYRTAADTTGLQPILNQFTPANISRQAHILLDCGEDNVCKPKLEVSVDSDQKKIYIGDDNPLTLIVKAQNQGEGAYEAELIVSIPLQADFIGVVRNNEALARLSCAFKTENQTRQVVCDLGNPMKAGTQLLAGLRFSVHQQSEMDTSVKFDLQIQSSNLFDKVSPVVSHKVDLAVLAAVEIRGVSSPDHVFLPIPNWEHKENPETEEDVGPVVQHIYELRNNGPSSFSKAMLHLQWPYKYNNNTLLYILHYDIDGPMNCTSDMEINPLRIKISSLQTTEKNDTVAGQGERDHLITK
integrin avb6, sequence (P06756 891-992 partner limits assumed): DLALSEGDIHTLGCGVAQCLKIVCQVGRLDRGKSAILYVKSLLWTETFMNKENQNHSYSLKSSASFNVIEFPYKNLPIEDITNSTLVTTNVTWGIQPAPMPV
integrin avb6, sequence (P18564 22-709 limits assumed): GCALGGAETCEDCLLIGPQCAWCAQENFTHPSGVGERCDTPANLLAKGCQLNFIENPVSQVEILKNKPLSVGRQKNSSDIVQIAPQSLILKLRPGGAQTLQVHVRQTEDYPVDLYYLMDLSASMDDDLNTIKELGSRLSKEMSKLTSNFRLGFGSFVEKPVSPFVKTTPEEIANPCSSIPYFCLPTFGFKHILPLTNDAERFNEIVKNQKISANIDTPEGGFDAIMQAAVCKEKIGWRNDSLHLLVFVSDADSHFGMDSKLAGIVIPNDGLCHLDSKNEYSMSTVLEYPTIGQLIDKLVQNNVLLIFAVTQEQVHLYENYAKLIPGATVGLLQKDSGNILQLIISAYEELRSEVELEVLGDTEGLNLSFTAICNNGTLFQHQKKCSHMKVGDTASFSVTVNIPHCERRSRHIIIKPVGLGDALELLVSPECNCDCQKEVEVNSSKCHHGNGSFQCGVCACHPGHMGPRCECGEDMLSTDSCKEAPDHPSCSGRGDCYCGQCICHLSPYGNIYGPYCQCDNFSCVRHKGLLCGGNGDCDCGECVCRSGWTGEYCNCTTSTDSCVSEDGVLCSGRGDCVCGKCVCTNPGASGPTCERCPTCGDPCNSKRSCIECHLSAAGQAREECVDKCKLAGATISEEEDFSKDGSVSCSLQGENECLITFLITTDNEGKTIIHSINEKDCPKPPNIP
integrin avb8, sequence (P06756 31-889 limits assumed): as the sequence (P06756 31-889 limits assumed) above
integrin avb8, sequence (P06756 891-992 partner limits assumed): as the sequence (P06756 891-992 partner limits assumed) above
integrin avb8, sequence (P26012 43-684 limits assumed): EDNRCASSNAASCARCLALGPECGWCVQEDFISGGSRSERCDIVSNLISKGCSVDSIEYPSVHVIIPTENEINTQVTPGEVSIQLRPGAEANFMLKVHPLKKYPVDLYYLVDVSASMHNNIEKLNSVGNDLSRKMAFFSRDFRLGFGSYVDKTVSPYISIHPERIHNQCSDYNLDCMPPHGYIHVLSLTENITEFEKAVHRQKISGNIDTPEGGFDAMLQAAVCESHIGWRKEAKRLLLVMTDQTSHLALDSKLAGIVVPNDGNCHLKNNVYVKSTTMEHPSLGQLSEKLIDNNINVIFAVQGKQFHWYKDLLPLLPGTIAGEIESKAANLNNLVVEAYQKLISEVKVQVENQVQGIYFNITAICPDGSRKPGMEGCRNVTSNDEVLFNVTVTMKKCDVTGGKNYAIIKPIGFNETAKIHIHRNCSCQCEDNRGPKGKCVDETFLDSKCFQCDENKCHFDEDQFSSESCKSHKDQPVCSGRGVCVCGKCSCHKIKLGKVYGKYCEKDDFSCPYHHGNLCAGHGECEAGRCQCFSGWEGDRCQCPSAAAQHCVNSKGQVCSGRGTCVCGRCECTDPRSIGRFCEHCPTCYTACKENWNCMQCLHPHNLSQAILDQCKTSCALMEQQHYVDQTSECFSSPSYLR

B1: 00179_v4.1: highest affinity α5β1 minibinder, sequence SELIIHGRGDFPSSELERLRERFERLGIKVRVDHKVLTLIGISEEEAERLARELRKRGIWVEIRK (protein)
chain: SELIIHGRGDFPSSELERLRERFERLGIKVRVDHKVLTLIGISEEEAERLARELRKRGIWVEIRK
With B1 as the molecule, how does the “binding to integrin avb6” value (integrin avb6) read?
The value was “No detectable binding”.

And the “binding to integrin avb8” value (integrin avb8)?
The value was “No detectable binding”.

And the “binding to integrin avb3” value (integrin avb3)?
Its value is “No detectable binding”.

And the “binding affinity to α5β1 on the cell surface” value [1]?
The value was “Nanomolar binding ability”.

What about the “localization of minibinder sheet with integrin α5 and active β1 staining” value [2] of the same molecule?
The value was “colocalized with active form of integrin α5β1”.

What about the vascular stability (HUVECs; HUVEC cells, 0, 0.1, 1, 10 and 100 nM, 12-h timepoint) of the same molecule?
The vascular stability was “decrease in vascular stability”.

And the tube formation (HUVECs; HUVECs, 10 nM and 100 nM, 12 hours, compared to PBS control)?
The tube formation was “significantly attenuated”.
